Source: US20080138349A1
One block for each substance: values may come before it.

Key:
[1] = biological target: FcγRIIIA 158F (CD16A F158), soluble monomer (human) (UniProt P08637); experiment: Biacore SPR; value on CD16A over value on CD32B
[2] = biological target: FcγRIIIA 158V (CD16A V158), soluble monomer (human) (UniProt P08637); experiment: Biacore SPR; value on CD16A over value on CD32B
[3] = biological target: FcγRIIIA 158F (CD16A F158), soluble monomer (human) (UniProt P08637); experiment: Biacore SPR
[4] = biological target: FcγRIIIA 158V (CD16A V158), soluble monomer (human) (UniProt P08637); experiment: Biacore SPR
[5] = biological target: FcγRIIB (CD32B), soluble dimeric Fc fusion (human) (UniProt P31994); experiment: Biacore SPR
[6] = biological target: FcγRIIIA (UniProt P08637); experiment: ELISA
Chain of FcγRIIIA (P08637 17-208 limits assumed): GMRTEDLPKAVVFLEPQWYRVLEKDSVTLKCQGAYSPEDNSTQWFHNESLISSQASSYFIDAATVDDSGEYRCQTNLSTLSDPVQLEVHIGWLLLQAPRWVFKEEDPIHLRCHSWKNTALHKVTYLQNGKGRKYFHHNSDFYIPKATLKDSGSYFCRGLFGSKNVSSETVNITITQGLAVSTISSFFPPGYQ

Chain of FcγRIIIA 158F (CD16A F158), soluble monomer (human) (P08637 17-208): as the sequence (P08637 17-208 limits assumed) above
Chain of FcγRIIB (CD32B), soluble dimeric Fc fusion (human) (P31994 43-217): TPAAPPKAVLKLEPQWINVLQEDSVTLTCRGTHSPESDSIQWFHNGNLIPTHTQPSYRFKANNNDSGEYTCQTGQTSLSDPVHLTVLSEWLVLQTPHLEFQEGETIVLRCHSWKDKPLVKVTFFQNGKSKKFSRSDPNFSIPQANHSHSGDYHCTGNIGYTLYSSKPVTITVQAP
Chain of FcγRIIIA 158V (CD16A V158), soluble monomer (human) (P08637 17-208 F176V): as the sequence (P08637 17-208 limits assumed) above, with F160V counted along it

Substance: Immunoglobulin with variant Fc region D270E (antibody)
- Ratio of Affinities CD16A F158/CD32B [1]: 3.79
- Ratio of Affinities CD16A V158/CD32B [2]: 3.21
- Koff WT/Koff mutant [3]: 1.48
- Koff WT/Koff mutant [4]: 1.25
- Koff WT/Koff mutant [5]: 0.39

Substance: Immunoglobulin with variant Fc region G316D R416G D270E (antibody)
- Ratio of Affinities CD16A F158/CD32B [1]: 3.19
- Ratio of Affinities CD16A V158/CD32B [2]: 2.79
- Koff WT/Koff mutant [3]: 2.49
- Koff WT/Koff mutant [4]: 2.18
- Koff WT/Koff mutant [5]: 0.78

Substance: Immunoglobulin with variant Fc region G316D R416G D270E P396L (antibody)
- Ratio of Affinities CD16A F158/CD32B [1]: 0.88
- Ratio of Affinities CD16A V158/CD32B [2]: 1.14
- Koff WT/Koff mutant [3]: 0.94
- Koff WT/Koff mutant [4]: 1.22
- Koff WT/Koff mutant [5]: 1.07

Substance: Immunoglobulin with variant Fc region K392T P396L (antibody)
- Ratio of Affinities CD16A F158/CD32B [1]: 0.77
- Ratio of Affinities CD16A V158/CD32B [2]: 0.63
- Koff WT/Koff mutant [3]: 1.81
- Koff WT/Koff mutant [4]: 1.49
- Koff WT/Koff mutant [5]: 2.35

Substance: Immunoglobulin with variant Fc region K392T P396L D270E (antibody)
- Ratio of Affinities CD16A F158/CD32B [1]: 2.89
- Ratio of Affinities CD16A V158/CD32B [2]: 2.29
- Koff WT/Koff mutant [3]: 2.28
- Koff WT/Koff mutant [4]: 1.81
- Koff WT/Koff mutant [5]: 0.79

Substance: Immunoglobulin with variant Fc region P247L N421K (antibody)
- Koff WT/Koff mutant [3]: 1.73
- Koff WT/Koff mutant [4]: 1.29

Substance: Immunoglobulin with variant Fc region R292G (antibody)
- Ratio of Affinities CD16A V158/CD32B [2]: 6.2
- Koff WT/Koff mutant [4]: 1.54
- Koff WT/Koff mutant [5]: 0.25

Substance: Immunoglobulin with variant Fc region R292P V305I (antibody)
- Ratio of Affinities CD16A V158/CD32B [2]: 0.6

Substance: Immunoglobulin with variant Fc region R292P V305I F243L P396L Y300L (antibody)
- Koff WT/Koff mutant [3]: 8.25
- Koff WT/Koff mutant [4]: 10.1
- Koff WT/Koff mutant [5]: 1.38

Substance: ch4-4-20 D280E, S354F, A431D, L441I (from UniProt P01857 1-330) (antibody)
- ELISA binding increase vs wt [6]: 3 x

Substance: ch4-4-20 E216D, E345K, S375I (from UniProt P01857 1-330) (antibody)
- ELISA binding increase vs wt [6]: 0.5 x

Substance: ch4-4-20 G385E, P247H (from UniProt P01857 1-330) (antibody)
- ELISA binding increase vs wt [6]: 1 x

Substance: ch4-4-20 H224L (from UniProt P01857 1-330) (antibody)
- ELISA binding increase vs wt [6]: 0.5 x

Substance: ch4-4-20 H310Y, T289A, G337E (from UniProt P01857 1-330) (antibody)
- ELISA binding increase vs wt [6]: 0.5 x

Substance: ch4-4-20 K222N, T335N, K370E, A378V, T394M (from UniProt P01857 1-330) (antibody)
- ELISA binding increase vs wt [6]: 1 x

Substance: ch4-4-20 K246R, S298N, I377F (from UniProt P01857 1-330) (antibody)
- ELISA binding increase vs wt [6]: 1 x

Substance: ch4-4-20 K246T, P396H (from UniProt P01857 1-330) (antibody)
- ELISA binding increase vs wt [6]: 1 x

Substance: ch4-4-20 K334E, T359N, T366S, Q386R (from UniProt P01857 1-330) (antibody)
- ELISA binding increase vs wt [6]: 1 x

Substance: ch4-4-20 K334I (from UniProt P01857 1-330) (antibody)
- ELISA binding increase vs wt [6]: 1 x

Substance: ch4-4-20 K334N (from UniProt P01857 1-330) (antibody)
- ELISA binding increase vs wt [6]: 0.5 x

Substance: ch4-4-20 P227S, K290E (from UniProt P01857 1-330) (antibody)
- ELISA binding increase vs wt [6]: 1 x

Substance: ch4-4-20 P247L (from UniProt P01857 1-330) (antibody)
- ELISA binding increase vs wt [6]: 0.5 x

Substance: ch4-4-20 P247L, A431V, S442F (from UniProt P01857 1-330) (antibody)
- ELISA binding vs wt [6]: 1 x

Substance: ch4-4-20 P247L, I253N, K334N (from UniProt P01857 1-330) (antibody)
- ELISA binding increase vs wt [6]: 3 x

Substance: ch4-4-20 P396H (from UniProt P01857 1-330) (antibody)
- ELISA binding increase vs wt [6]: 1 x

Substance: ch4-4-20 S219Y (from UniProt P01857 1-330) (antibody)
- ELISA binding increase vs wt [6]: 1 x

Substance: ch4-4-20 T394M, V397M (from UniProt P01857 1-330) (antibody)
- ELISA binding increase vs wt [6]: 0.5 x

Substance: ch4-4-20 V282E, V369I, L406F (from UniProt P01857 1-330) (antibody)
- ELISA binding increase vs wt [6]: 0.5 x

Substance: ch4-4-20 V282M (from UniProt P01857 1-330) (antibody)
- ELISA binding increase vs wt [6]: 1 x

Substance: ch4-4-20 V284A, F372L (from UniProt P01857 1-330) (antibody)
- ELISA binding vs wt [6]: 1 x

Second part, the substance after the results:

- Ratio of Affinities CD16A F158/CD32B [1]: 6.7
- Ratio of Affinities CD16A V158/CD32B [2]: 7.5
- Koff WT/Koff mutant [3]: 1.34
- Koff WT/Koff mutant [4]: 1.5
- Koff WT/Koff mutant [5]: 0.2
Substance: Immunoglobulin with variant Fc region G316D R416G D270E F243L (antibody)

- Ratio of Affinities CD16A F158/CD32B [1]: 5.55
- Ratio of Affinities CD16A V158/CD32B [2]: 7.18
- Koff WT/Koff mutant [3]: 2.44
- Koff WT/Koff mutant [4]: 3.16
- Koff WT/Koff mutant [5]: 0.44
Substance: Immunoglobulin with variant Fc region K392T P396L D270E F243L (antibody)

- Koff WT/Koff mutant [4]: 1.64
- Koff WT/Koff mutant [5]: 0.68
Substance: Immunoglobulin with variant Fc region Q419H P396L D270E (antibody)

- Ratio of Affinities CD16A V158/CD32B [2]: 39.4
Substance: Immunoglobulin with variant Fc region R292P F243L (antibody)

- ELISA binding increase vs wt [6]: 0.5 x
Substance: ch4-4-20 A378V, N390I, V422I (from UniProt P01857 1-330) (antibody)

- ELISA binding increase vs wt [6]: 0.5 x
Substance: ch4-4-20 D312E, K327N, I378S (from UniProt P01857 1-330) (antibody)

- ELISA binding decrease vs wt [6]: 0.5 x
Substance: ch4-4-20 D399E, M428L (from UniProt P01857 1-330) (antibody)

- ELISA binding increase vs wt [6]: 0.5 x
Substance: ch4-4-20 D401V (from UniProt P01857 1-330) (antibody)

- ELISA binding increase vs wt [6]: 1 x
Substance: ch4-4-20 F243L, R255L, E318K (from UniProt P01857 1-330) (antibody)

- ELISA binding increase vs wt [6]: 0.5 x
Substance: ch4-4-20 F275I, K334N, V348M (from UniProt P01857 1-330) (antibody)

- ELISA binding increase vs wt [6]: 3 x
Substance: ch4-4-20 F275Y (from UniProt P01857 1-330) (antibody)

- ELISA binding decrease vs wt [6]: 0.5 x
Substance: ch4-4-20 I377N (from UniProt P01857 1-330) (antibody)

- ELISA binding increase vs wt [6]: 1 x
Substance: ch4-4-20 K222N (from UniProt P01857 1-330) (antibody)

- ELISA binding increase vs wt [6]: 1 x
Substance: ch4-4-20 K246T, Y319F (from UniProt P01857 1-330) (antibody)

- ELISA binding increase vs wt [6]: 1 x
Substance: ch4-4-20 K288N, K326N (from UniProt P01857 1-330) (antibody)

- ELISA binding increase vs wt [6]: 1 x
Substance: ch4-4-20 K320E, K326E (from UniProt P01857 1-330) (antibody)

- ELISA binding increase vs wt [6]: 0.5 x
Substance: ch4-4-20 K326E, G385E (from UniProt P01857 1-330) (antibody)

- ELISA binding increase vs wt [6]: 2.9 x
Substance: ch4-4-20 K326I, P396L (from UniProt P01857 1-330) (antibody)

- ELISA binding increase vs wt [6]: 1 x
Substance: ch4-4-20 K370N, S440N (from UniProt P01857 1-330) (antibody)

- ELISA IIIA binding vs wt [6]: 1 X
- ELISA binding increase vs wt [6]: 1 x
Substance: ch4-4-20 N315I, V379M, T394M (from UniProt P01857 1-330) (antibody)

- ELISA binding increase vs wt [6]: 1 x
Substance: ch4-4-20 P247L, I377F (from UniProt P01857 1-330) (antibody)

- ELISA binding decrease vs wt [6]: 0.5 x
Substance: ch4-4-20 P291S, K288E, H268L, A141V (from UniProt P01857 1-330) (antibody)

- ELISA binding decrease vs wt [6]: 0.5 x
Substance: ch4-4-20 P291S, P353Q (from UniProt P01857 1-330) (antibody)

- ELISA binding increase vs wt [6]: 0.5 x
Substance: ch4-4-20 P343S, P353L, S375I, S383N (from UniProt P01857 1-330) (antibody)

- ELISA binding increase vs wt [6]: 0.5 x
Substance: ch4-4-20 Q347H, A339V (from UniProt P01857 1-330) (antibody)

- ELISA binding decrease vs wt [6]: 0.5 x
Substance: ch4-4-20 R301C, M252L, S192T (from UniProt P01857 1-330) (antibody)

- ELISA binding decrease vs wt [6]: 0.5 x
Substance: ch4-4-20 R301H, K340E, D399E (from UniProt P01857 1-330) (antibody)

- ELISA binding increase vs wt [6]: 0.5 x
Substance: ch4-4-20 S298N, S407R (from UniProt P01857 1-330) (antibody)

- ELISA binding increase vs wt [6]: 0.5 x
Substance: ch4-4-20 S383N, N384K, T256N, V262L, K218E, R214I, K205E, F149Y, K133M (from UniProt P01857 1-330) (antibody)

- ELISA binding increase vs wt [6]: 1 x
Substance: ch4-4-20 S400P (from UniProt P01857 1-330) (antibody)

- ELISA binding increase vs wt [6]: 0.5 x
Substance: ch4-4-20 S407I (from UniProt P01857 1-330) (antibody)

- ELISA binding increase vs wt [6]: 0.5 x
Substance: ch4-4-20 S408I, V215I, V125L (from UniProt P01857 1-330) (antibody)

- ELISA binding increase vs wt [6]: 0.5 x
Substance: ch4-4-20 S415I, L251F (from UniProt P01857 1-330) (antibody)

- ELISA binding increase vs wt [6]: 0.5 x
Substance: ch4-4-20 T335N, K370E, A378V, T394M, S424L (from UniProt P01857 1-330) (antibody)

- ELISA binding increase vs wt [6]: 1 x
Substance: ch4-4-20 V279L, P395S (from UniProt P01857 1-330) (antibody)
